Test results from FireProtDB (doi:10.1021/bi0118052).
Where “and” joins values, the source holds several entries; their conditions need not be identical. Identical values can stand only once.

B1: Protein S100-B, P04271 (parent)
chain: MSELEKAMVALIDVFHQYSGREGDKHKLKKSELKELINNELSHFLEEIKEQEVVDKVMETLDNDGDGECDFQEFMAFVAMVTTACHEFFEHE

Variants of: B1
Conditions: Homo sapiens; pH 7.2; 25 °C; GdnHCl; CD; MOPS 10 mM; KCl 50 mM; reversible: yes; structure 1UWO; whole UniProt chain shown

| Variant | ddG of mutation (higher = less stable) | denaturant m value | denaturant midpoint (higher = more stable) | unfolding free energy [kcal/mol] |
| --- | --- | --- | --- | --- |
| MSELEKAAVALIDVFHQYSGREGDKHKLKKSELKELINNELSHFLEEIKEQEVVDKVMETLDNDGDGECDFQEFMAFVAMVTTACHEFFEHE [M8A] | 0.65 kcal/mol | 1.36 kcal/mol/M | 3.6 M |  |
| MSELEKAMVALIDVAHQYSGREGDKHKLKKSELKELINNELSHFLEEIKEQEVVDKVMETLDNDGDGECDFQEFMAFVAMVTTACHEFFEHE [F15A] | 7.53 kcal/mol and 3.42 kcal/mol | 1.94 kcal/mol/M and 1.08 kcal/mol/M | 1.8 M and 2.3 M | 9.78 |
| MSEAEKAMVALIDVAHQYSGREGDKHKLKKSELKELINNELSHFLEEIKEQEVVDKVMETLDNDGDGECDFQEFMAFVAMVTTACHEFFEHE [L4A F15A] | 8.94 kcal/mol and 5.16 kcal/mol | 1.67 kcal/mol/M and 0.81 kcal/mol/M | 1.3 M and 1.7 M | 8.39 |
| MSEAEKAMVALADVFHQYSGREGDKHKLKKSELKELINNELSHFLEEIKEQEVVDKVMETLDNDGDGECDFQEFMAFVAMVTTACHEFFEHE [L4A I12A] |  | 2.84 kcal/mol/M and 1.77 kcal/mol/M | 2.1 M and 3.3 M | 12.2 |
| MSELEKAMVALADVFHQYSGREGDKHKLKKSELKELINNELSHFLEEIKEQEVVDKVMETLDNDGDGECDFQEFMAFVAMVTTACHEFFEHE [I12A] |  | 2.75 kcal/mol/M and 1.43 kcal/mol/M | 2.3 M and 4.2 M | 13.2 |
| MSESEKAMVALIDVFHQYSGREGDKHKLKKSELKELINNELSHFLEEIKEQEVVDKVMETLDNDGDGECDFQEFMAFVAMVTTACHEFFEHE [L4S] |  | 3.3 kcal/mol/M and 2.29 kcal/mol/M | 2.4 M and 3.2 M | 14.5 |
| MSEAEKAMVALIDVFHQYSGREGDKHKLKKSELKELINNELSHFLEEIKEQEVVDKVMETLDNDGDGECDFQEFMAFVAMVTTACHEFFEHE [L4A] |  | 3.49 kcal/mol/M and 1.58 kcal/mol/M | 2.7 M and 3.7 M | 16.1 |
